No end group written: not given here.
T1: mouse somatostatin receptor SSTR2 (mouse)
T1 chain: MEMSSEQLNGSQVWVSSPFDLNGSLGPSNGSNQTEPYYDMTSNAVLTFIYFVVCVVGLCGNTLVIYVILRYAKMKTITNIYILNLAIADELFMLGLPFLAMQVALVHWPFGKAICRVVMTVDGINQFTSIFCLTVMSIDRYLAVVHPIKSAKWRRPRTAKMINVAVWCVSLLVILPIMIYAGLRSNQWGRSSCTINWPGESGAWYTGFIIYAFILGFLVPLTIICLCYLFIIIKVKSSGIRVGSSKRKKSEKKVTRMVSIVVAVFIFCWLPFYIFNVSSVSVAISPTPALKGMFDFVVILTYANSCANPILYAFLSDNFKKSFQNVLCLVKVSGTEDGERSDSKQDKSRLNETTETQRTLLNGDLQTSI


What was measured:
[1] = biological target: T1, mouse somatostatin receptor SSTR2; assay: competition of [125I]iodo-Tyr11-somatostatin-14 binding to CHO cells transfected with mouse SSTR2
Source text: At 1.5 PstI/XmnI fragment of the human SSTR1 gene and a 1.2 kb XbaI fragment of the mouse SSTR2 gene were inserted into the mammalian expression vectors pCMV6b and 6c, respectively (a gift of Dr. B. Chapman, Chiron Corp., Emeryville, Calif.). The resulting constructs were co-transfected with pSV2neo into the dihydrofolate reductase-deficient Chinese hamster ovary (CHO) cell line, DG44, using Lipofectin Reagent (GIBCO BRL, Gaithersburg, Md.). Stable transfectants were selected and maintained in α-MEM (GIBCO BRL) containing 400 vg/ml G418. Each cell line was grown to confluency in 6-well, 35-mm diameter plates at 37° C. The cells were washed with buffer containing 10 mM HEPES, 5 mM KH_2PO_4, 5 mM MgCl_2, 150 mM NaCl, and 1% (wt./vol.) bovine serum albumin (all at pH 7.4), and were stabilized in the same buffer for 30 min at 22° C. […] Incubated cells were washed twice with 2-ml portions of ice-cold buffer and were dissolved in 1 ml of 8M urea in 3M acetic acid. The suspended cells were transferred to a tube, the well was washed with 1 ml of the same solution, and the combined extracts were measured for radioactivity by use of a gamma-counter.

[2] = biological target: human somatostatin receptor SSTR1 (human); assay: competition of [125I]iodo-Tyr11-somatostatin-14 binding to CHO cells stably expressing human SSTR1
Chain of human somatostatin receptor SSTR1 (human) (chain, as listed by the source): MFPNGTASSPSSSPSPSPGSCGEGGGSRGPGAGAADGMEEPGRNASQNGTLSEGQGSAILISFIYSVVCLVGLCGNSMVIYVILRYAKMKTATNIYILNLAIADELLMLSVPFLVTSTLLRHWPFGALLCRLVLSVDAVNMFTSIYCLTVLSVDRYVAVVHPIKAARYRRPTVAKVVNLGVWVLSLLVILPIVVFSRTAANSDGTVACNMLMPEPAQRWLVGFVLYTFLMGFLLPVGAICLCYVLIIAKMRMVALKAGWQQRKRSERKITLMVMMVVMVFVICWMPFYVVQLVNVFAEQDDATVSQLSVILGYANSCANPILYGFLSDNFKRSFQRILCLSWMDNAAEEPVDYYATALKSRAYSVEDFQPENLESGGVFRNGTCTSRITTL
Procedure: The resulting constructs were co-transfected with pSV2neo into the dihydrofolate reductase-deficient Chinese hamster ovary (CHO) cell line, DG44, using Lipofectin Reagent (GIBCO BRL, Gaithersburg, Md.). Stable transfectants were selected and maintained in α-MEM (GIBCO BRL) containing 400 vg/ml G418. Each cell line was grown to confluency in 6-well, 35-mm diameter plates at 37° C. The cells were washed with buffer containing 10 mM HEPES, 5 mM KH_2PO_4, 5 mM MgCl_2, 150 mM NaCl, and 1% (wt./vol.) bovine serum albumin (all at pH 7.4), and were stabilized in the same buffer for 30 min at 22° C. […] Incubated cells were washed twice with 2-ml portions of ice-cold buffer and were dissolved in 1 ml of 8M urea in 3M acetic acid. The suspended cells were transferred to a tube, the well was washed with 1 ml of the same solution, and the combined extracts were measured for radioactivity by use of a gamma-counter.
The pharmacological characteristics of SSTR1 were examined in CHO cells that were stably expressing this receptor.

Binder	IC50 [1] [nM]	IC50 [2] [nM]
AGCKNFFWKTFTSC (not fully specified (bridges); cysteine pairing not given here) [somatostatin-14]	1.6	–
SANSNPAMAPRERKAGCKNFFWKTFTSC [somatostatin-28]	–	4.7

From US5723299, “Somatostatin receptors” (Arch Development Corporation, dated 1998)
